Columns and labels:
[1] = molecular target: human IL-2 receptor (p55 Tac protein) on HUT-102 cells (human) (UniProt P01589); experiment: competition with radioiodinated mouse anti-Tac on HUT-102 cells
[2] = molecular target: human IL-2 receptor (p55 Tac protein) on HUT-102 cells (human) (UniProt P01589); experiment: cell-based or functional assay
[3] = molecular target: gH glycoprotein of cytomegalovirus on CMV-infected HEL cells (cytomegalovirus (CMV)) (UniProt P12824); experiment: immunostaining of CMV-infected HEL cells, 2-fold dilutions, HRP secondary

human IL-2 receptor (p55 Tac protein) on HUT-102 cells (human), sequence (P01589 22-272): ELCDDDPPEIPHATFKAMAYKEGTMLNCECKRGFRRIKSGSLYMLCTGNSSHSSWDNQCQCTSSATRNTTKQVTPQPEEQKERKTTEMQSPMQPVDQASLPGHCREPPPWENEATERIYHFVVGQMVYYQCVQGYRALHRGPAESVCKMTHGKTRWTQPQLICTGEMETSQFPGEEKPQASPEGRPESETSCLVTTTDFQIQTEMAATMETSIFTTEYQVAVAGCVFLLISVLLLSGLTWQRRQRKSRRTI

B1: CDR-only humanized anti-Tac antibody (antibody, V domains shown)
VH: QVQLVQSGAEVKKPGSSVKVSCKASGGTFSSYRMHWVRQAPGQGLEWMGYINPSTGYTEYNQKFKDRVTITADESTNTAYMELSSLRSEDTAFYFCAGGGGVFDYEYNGGLVTVSS
VL: DIQMTQSPSTLSASVGDRVTITCSASSSISYMHWYQQKPGKAPKLLMYTTSNLASGVPSRFIGSGSGTEFTLTISSLQPDDFATYYCHQRSTYPLTFGQGTKVEVK
fold reduction of binding affinity compared to the PDL humanized anti-Tac antibody [1]: > 100 fold

B2: mouse anti-Tac antibody (antibody, V domains shown)
VH: QVQLQQSGAELAKPGASVKMSCKASGYTFTSYRMHWVKQRPGQGLEWIGYINPSTGYTEYNQKFKDKATLTADKSSSTAYMQLSSLTFEDSAVYYCARGGGVFDYWGQGTTLTVSS
VL: QIVLTQSPAIMSASPGEKVTITCSASSSISYMHWFQQKPGTSPKLWIYTTSNLASGVPARFSGSGSGTSYSLTISRMEAEDAATYYCHQRSTYPLTFGSGTKLELK
Percent 51Cr release after ADCC, effector:target ratio 30:1 [2]: 4%
Percent 51Cr release after ADCC, effector:target ratio 100:1 [2]: < 1%

B3: mouse CMV5 antibody (antibody, V domains shown)
VH: EVQLQQSGPELVKPGASMKISCKASVYSFTGYTMNWVKQSHGQNLEWIGLINPYNGGTSYNQKFKGKATLTVDKSSNTAYMELLSLTSADSAVYYCTRRGFRDYSMDYWGQGTSVTVSS
VL: DIVLTQSPATLSVTPGDSVSLSCRASQSISNNLHWYQQKSHESPRLLIKYASQSISGIPSRFSGSGSGTDFTLSVNGVETEDFGMYFCQQSNSWPHTFGGGTKLEIK
least amount of antibody that produced a detectable precipitate [3]: 63 ng/mL

— patent publication US20080160018A1
